In article doi:10.1101/2021.02.22.432209:

Biological target: GST-PreScission-p62 FIR 4P (human) (UniProt Q13501)
Experiment: SPR

Substance: LC3B (1-125), His8-TEV-LC3B (from UniProt Q9GZQ8 1-120) (natural protein)
- KD estimated from the kinetics of the sensorgrams: 80 nM
- half life: 20 min
